The values that follow come from PMC3489907, “The Human Homolog of Escherichia coli Endonuclease V Is a Nucleolar Protein with Affinity for Branched DNA Structures”.

The target in this data set is T1, ENDOV WT (human endonuclease V, exon 10 isoform) (Homo sapiens, UniProt Q8N8Q3 1-282).
T1 sequence: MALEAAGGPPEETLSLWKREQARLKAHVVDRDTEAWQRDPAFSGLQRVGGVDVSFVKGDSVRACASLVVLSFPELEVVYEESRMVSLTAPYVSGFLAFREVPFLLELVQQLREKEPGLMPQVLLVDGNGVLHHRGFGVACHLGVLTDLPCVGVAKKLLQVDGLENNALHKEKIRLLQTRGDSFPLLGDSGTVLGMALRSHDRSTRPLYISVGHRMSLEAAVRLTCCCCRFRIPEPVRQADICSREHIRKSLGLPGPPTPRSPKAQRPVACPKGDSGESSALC
The experiment in a line: EMSA; 5 mM Ca2+; EMSA: 10 fmol DNA in 10 µl, 5 ng pQE31 competitor DNA, 5 mM CaCl2, 10 mM HEPES-KOH pH 7.4, 1 mM DTT, 20% glycerol, 4°C 15 min; 10% native PAGE with 5 mM CaCl2 on ice; ENDOV 1.6-6.4 pmol, E. coli endoV 2-8 pmol. The following applies: protein: recombinant, tags: none (His6-MBP removed with TEV). For orientation: Mobility shift assays separate free from complexed probe on a gel.

B1: Holliday junction (16+17*+18+19) (structured_DNA)
DNA 1: CCGCTACCAGTGATCACCAATGGATTGCTAGGACATCTTTGCCCACCTGCAGGTTCACCC
DNA 2: TGGGTGAACCTGCAGGTGGGCAAAGATGTCCTAGCAATCCATTGTCTATGACGTCAAGCT
DNA 3: GAGCTTGACGTCATAGACAATGGATTGCTAGGACATCTTTGCCGTCTTGTCAATATCGGC
DNA 4: TGCCGATATTGACAAGACGGCAAAGATGTCCTAGCAATCCATTGGTGATCACTGGTAGCGG
As to B1, the binding result (label: 5'-32P on strand 2, four-way junction 1:2 2:3 3:4 4:1) was “binds”.

B2: 5'-flap (10+12+13*) (structured_DNA)
DNA 1: GGATACGTAACAACGCTTATGCATCGCCGCCGCTACATCCCTGAGCTGAC
DNA 2: GTCAGCTCAGGGATGTAGCGGCGG
DNA 3: TGTGTTCGATCTCGATCAGAATGACGATGCATAAGCGTTGTTACGTATCC
For the molecule B2, the binding result (label: 5'-32P on strand 3, 5'-flap, 1:2 1:3, 5' part of strand 3 unpaired (24 nt)) is listed as “binds”.

B3: fork (10+11+14*+15) (structured_DNA)
DNA 1: B2 DNA 1
DNA 2: ATGCATAAGCGTTGTTACGTATCC
DNA 3: GTCAGCTCAGGGATGTAGCGGCGGAGTCATTCTGATCGAGATCGAACACA
DNA 4: TGTGTTCGATCTCGATCAGAATGA
As to B3, the binding result (label: 5'-32P on strand 3, fork 1:2 1:3 3:4) is “binds”.

B4: 3'-flap (10+11+14*) (structured_DNA)
DNA 1: B2 DNA 1
DNA 2: ATGCATAAGCGTTGTTACGTATCC
DNA 3: B3 DNA 3
Take B4: under “label: 5'-32P on strand 3, 3'-flap, 1:2 1:3, 3' part of strand 3 unpaired”, the binding result is on record as “binds”.

B5: pseudo-Y (10*+13) (structured_DNA)
DNA 1: B2 DNA 1
DNA 2: B2 DNA 3
Consider B5, for which the binding result (label: 5'-32P on strand 1, splayed duplex 1:2, 3' part of strand 1 and 5' part of strand 2 unpaired (24 nt each)) is recorded as “binds”.

B6: 3-way junction (10*+13+14) (structured_DNA)
DNA 1: B2 DNA 1
DNA 2: B2 DNA 3
DNA 3: B3 DNA 3
Consider B6, for which the binding result (label: 5'-32P on strand 1, three-way junction 1:2 1:3 2:3) is on record as “binds”.
